Substitutions are numbered along the chain they refer to.
Assays:
[1] = molecular target: T1, OsWRKY45-DBD (OsWRKY45-1) (Oryza sativa Japonica subspecies, UniProt Q5W6D6 104-182); assay: EMSA
T1 sequence: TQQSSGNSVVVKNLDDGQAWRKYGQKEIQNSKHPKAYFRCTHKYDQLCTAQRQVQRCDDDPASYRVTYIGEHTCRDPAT

AUC = molecular target: the molecule itself; assay: AUC
[2] = molecular target: T1, OsWRKY45-DBD (OsWRKY45-1); assay: BLI
OsWRKY45-DBD R142A = molecular target: T2, OsWRKY45-DBD R142A (Oryza sativa Japonica subspecies, UniProt Q5W6D6 104-182, R142A); assay: BLI
T2 sequence: T1 sequence with R39A

[3] = molecular target: T3, OsWRKY45-DBD L150M (= OsWRKY45-2-DBD) (Oryza sativa Japonica subspecies, UniProt Q5W6D6 104-182, L150M); assay: BLI
T3 sequence: T1 sequence with L47M

B1: MUT8A (dsDNA)
DNA 1: GATATTTAACCGGA
DNA 2: TCCGGTTAAATATC
Does B1 bind [1]?
Result: no binding

B2: MUT11T (dsDNA)
DNA 1: GATATTTGACTGGA
DNA 2: TCCAGTCAAATATC
Does B2 bind [1]?
Result: binds

B3: MUT7C (dsDNA)
DNA 1: GATATTCGACCGGA
DNA 2: TCCGGTCGAATATC
Does B3 bind [1]?
Result: no binding

B4: MUT9C (dsDNA)
DNA 1: GATATTTGCCCGGA
DNA 2: TCCGGGCAAATATC
Does B4 bind [1]?
Result: no binding

B5: OsWRKY45–DBD (DNA binding domain of OsWRKY45, residues 104–182) (domain or fragment)
chain: T1 sequence
B5 was tested. Which “stoichiometry N” value (AUC) did it give?
The value was 2.

B6: MUT11A (dsDNA)
DNA 1: GATATTTGACAGGA
DNA 2: TCCTGTCAAATATC
Does B6 bind [1]?
Result: no binding

B7: DNA-1 (W-box DNA) (dsDNA)
DNA 1: GATATTTGACCGGA
DNA 2: TCCGGTCAAATATC
With B7 as the binder, how does the Kd [2] read?
Its Kd is 4.6 µM.

And the Kd (OsWRKY45-DBD R142A)?
The Kd was 13.8 µM.

What about the Kd [3] of the same binder?
The Kd was 7.7 µM.

B8: MUT10A (dsDNA)
DNA 1: GATATTTGAACGGA
DNA 2: TCCGTTCAAATATC
Does B8 bind [1]?
Result: no binding

Reference: paper PMC6486541 (Nucleic Acids Research, 2019)
